Measurements reported in paper PMC7988105.
Residue numbers refer to the chain shown, from its start. Names and notes keep the numbering of the source.

B1: mouse NLGN3 ECD (residues 35–684) with C-terminal His6 tag, Q8BYM5 H279A; S280A; E281A (protein)
chain: QAPAPTVNTHFGKLRGARVPLPSEILGPVDQYLGVPYAAPPIGEKRFLPPEPPPSWSGIRNATHFPPVCPQNIHTAVPEVMLPVWFTANLDIVATYIQEPNEDCLYLNVYVPTEDGSGAKKQGEDLADNDGDEDEDIRDSGAKPVMVYIHGGSYMEGTGNMIDGSVLASYGNVIVITLNYRVGVLGFLSTGDQAAKGNYGLLDQIQALRWVSENIAFFGGDPRRITVFGSGIGASCVSLLTLSHAAAGLFQRAIIQSGSALSSWAVNYQPVKYTSLLADKVGCNVLDTVDMVDCLRQKSAKELVEQDIQPARYHVAFGPVIDGDVIPDDPEILMEQGEFLNYDIMLGVNQGEGLKFVEGVVDPEDGVSGTDFDYSVSNFVDNLYGYPEGKDTLRETIKFMYTDWADRDNPETRRKTLVALFTDHQWVEPSVVTADLHARYGSPTYFYAFYHHCQSLMKPAWSDAAHGDEVPYVFGVPMVGPTDLFPCNFSKNDVMLSAVVMTYWTNFAKTGDPNKPVPQDTKFIHTKANRFEEVAWSKYNPRDQLYLHIGLKPRVRDHYRATKVAFWKHLVPHLYNLHDMFHYTSTTTKVPPPDTTHSSHITRRPNGKTWSTKRPAISPAYSNENAPGSWNGDQDAGPLLVENPRDYSTE
B2: mouse NLGN3 ECD (residues 35–684) with C-terminal His6 tag, Q8BYM5 D362A; E372A; N375A (protein)
chain: B1 chain with A245H, A246S, A247E, D328A, E338A, N341A
B3: mouse NLGN3 ECD (residues 35–684) with C-terminal His6 tag, Q8BYM5 M614A; F615A (protein)
chain: B1 chain with A245H, A246S, A247E, M580A, F581A
B4: mouse NLGN3 ECD (residues 35–684) with C-terminal His6 tag, Q8BYM5 M614I; F615S (protein)
chain: B1 chain with A245H, A246S, A247E, M580I, F581S
B5: NLGN3 ECD R448C mutant (R/C; equivalent to human R451C) with His6 tag, Q8BYM5 35-684 (domain or fragment)
chain: B1 chain with A245H, A246S, A247E, R414C

What was measured:
[1] = biological target: NRXN1β (lacking SS4) Fc fusion used as bait in the pull-down; experiment: pull-down; details: chain shown with the change;; parent: est. 100; read off a plot
Chain of NRXN1β (lacking SS4) Fc fusion used as bait in the pull-down (chain, as listed by the source): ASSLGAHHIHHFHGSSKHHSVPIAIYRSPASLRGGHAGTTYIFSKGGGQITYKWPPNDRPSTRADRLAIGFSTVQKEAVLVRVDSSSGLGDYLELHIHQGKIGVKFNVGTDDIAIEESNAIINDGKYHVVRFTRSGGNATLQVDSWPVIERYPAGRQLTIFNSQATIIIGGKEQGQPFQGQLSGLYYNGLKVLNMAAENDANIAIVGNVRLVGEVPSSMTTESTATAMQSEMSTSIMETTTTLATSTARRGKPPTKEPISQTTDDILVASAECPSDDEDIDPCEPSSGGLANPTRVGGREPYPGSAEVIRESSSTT

[2] = biological target: PTPδA3B– extracellular domain fused to Fc (mouse); experiment: pull-down; soluble recombinant proteins mixed at 0.03 μM each in HBSS, 2 mM CaCl2, 1 mM MgCl2, 3 h, then Protein A-Sepharose 1 h, room temperature; NLGN3-His6 detected with anti-His
Chain of PTPδA3B– extracellular domain fused to Fc (mouse) (Q64487 other isoform, or with tags, fused parts or gaps mutant): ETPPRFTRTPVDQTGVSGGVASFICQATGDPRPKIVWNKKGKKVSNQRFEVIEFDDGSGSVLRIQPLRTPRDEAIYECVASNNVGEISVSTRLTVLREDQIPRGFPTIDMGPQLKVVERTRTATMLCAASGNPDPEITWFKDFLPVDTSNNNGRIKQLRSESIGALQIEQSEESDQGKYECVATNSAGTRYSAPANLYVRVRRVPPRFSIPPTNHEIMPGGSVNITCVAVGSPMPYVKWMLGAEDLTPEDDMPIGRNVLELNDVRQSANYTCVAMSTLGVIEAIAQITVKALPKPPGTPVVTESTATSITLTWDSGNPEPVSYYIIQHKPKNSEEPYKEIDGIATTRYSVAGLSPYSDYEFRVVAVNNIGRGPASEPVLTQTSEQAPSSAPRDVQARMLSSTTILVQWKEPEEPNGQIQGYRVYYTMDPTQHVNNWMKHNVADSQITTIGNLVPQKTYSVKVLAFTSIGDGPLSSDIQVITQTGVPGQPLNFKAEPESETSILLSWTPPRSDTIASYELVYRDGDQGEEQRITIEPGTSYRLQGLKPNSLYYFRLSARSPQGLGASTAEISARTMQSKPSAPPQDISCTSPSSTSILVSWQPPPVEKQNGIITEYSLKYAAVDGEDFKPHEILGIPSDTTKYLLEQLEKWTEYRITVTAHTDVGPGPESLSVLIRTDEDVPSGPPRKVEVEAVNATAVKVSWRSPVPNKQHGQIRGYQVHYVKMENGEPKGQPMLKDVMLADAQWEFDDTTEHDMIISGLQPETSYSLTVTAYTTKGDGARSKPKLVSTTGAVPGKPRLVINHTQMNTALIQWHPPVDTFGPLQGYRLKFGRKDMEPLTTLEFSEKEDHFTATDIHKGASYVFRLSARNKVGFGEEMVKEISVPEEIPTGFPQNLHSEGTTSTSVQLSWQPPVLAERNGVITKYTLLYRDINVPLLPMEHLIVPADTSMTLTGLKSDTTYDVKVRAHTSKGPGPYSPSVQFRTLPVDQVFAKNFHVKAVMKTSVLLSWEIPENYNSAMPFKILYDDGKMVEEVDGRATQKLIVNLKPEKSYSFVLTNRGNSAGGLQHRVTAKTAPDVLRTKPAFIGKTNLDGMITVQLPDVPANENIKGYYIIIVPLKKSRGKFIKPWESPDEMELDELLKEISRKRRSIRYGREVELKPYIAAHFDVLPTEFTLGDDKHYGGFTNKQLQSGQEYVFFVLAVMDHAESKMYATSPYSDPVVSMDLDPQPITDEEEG

Row | Binder | percent of parent [1] [% WT] | pulldown efficiency (% of wild-type) (% of wild-type) [2]
1 | B1 | 22 | 
2 | B2 | 18 | 
3 | B3 | 104 | 
4 | B4 | 115 | 
5 | B5 |  | 20
